Assay [1] addresses T1, CDH6 on the cell surface of OVCAR-3 cells (human ovarian cancer cells) (human, UniProt P55285 54-790).
T1 construct: whole, on cells; also called CDH6-positive human ovarian cancer cell line OVCAR-3
T1 sequence (looked up): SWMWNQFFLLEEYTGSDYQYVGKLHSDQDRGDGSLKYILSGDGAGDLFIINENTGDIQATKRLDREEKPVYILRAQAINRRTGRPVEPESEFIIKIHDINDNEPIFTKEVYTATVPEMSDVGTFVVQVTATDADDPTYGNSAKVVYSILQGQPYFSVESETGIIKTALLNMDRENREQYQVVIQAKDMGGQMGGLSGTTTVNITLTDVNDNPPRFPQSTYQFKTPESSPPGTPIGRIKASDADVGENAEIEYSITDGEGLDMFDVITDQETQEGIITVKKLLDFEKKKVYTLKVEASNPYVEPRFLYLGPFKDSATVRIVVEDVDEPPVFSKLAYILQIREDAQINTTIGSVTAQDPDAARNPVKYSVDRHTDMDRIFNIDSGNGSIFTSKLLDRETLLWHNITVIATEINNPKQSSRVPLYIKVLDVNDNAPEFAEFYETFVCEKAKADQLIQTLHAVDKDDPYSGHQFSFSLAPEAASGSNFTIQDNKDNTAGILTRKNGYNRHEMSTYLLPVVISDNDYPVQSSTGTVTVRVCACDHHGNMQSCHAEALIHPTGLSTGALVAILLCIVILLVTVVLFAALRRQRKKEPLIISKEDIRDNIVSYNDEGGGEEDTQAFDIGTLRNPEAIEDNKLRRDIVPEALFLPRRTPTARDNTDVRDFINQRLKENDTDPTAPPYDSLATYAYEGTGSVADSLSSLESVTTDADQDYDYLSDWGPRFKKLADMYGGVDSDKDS
Briefly: flow cytometry (FACS) on OVCAR-3 cells, antibody titration, labelled secondary antibody, MFI. The procedure: The binding EC50 of the humanized antibodies on tumor cell were tested as follow. Human ovarian cancer cell line OVCAR-3(purchased from National Collection of Authenticated Cell Cultures) cell culture was maintained in vitro as independent monolayer cultures at 37° C. in an atmosphere of 5% CO₂. The cells were harvested using trypsin-EDTA partial digestion followed by centrifugation at 1000 rpm for 5 minutes. The cell was resuspended in cold PBS and serial dilution of Ch069707 and CL069707-H1L1, CL069707-H1L2, CL069707-H2L1 and CL069707-H2L2 antibodies were added. Ch069707 antibody was a chimeric antibody. The variable regions were the same as those of CL069707, and the constant region was the same as human IgG1 constant regions (SEQ ID NO: 70 and SEQ ID NO: 71). The cell solutions were mixed, incubated at 4° C. and washed with cold PBS prior to addition of secondary antibody conjugates (for detection purposes). After incubation at 4° C., the cells were washed with PBS, and then subjected to flow cytometry (FACS) analysis.

Another assay deals with T2, human CDH9-ECD-His (human, UniProt Q9ULB4 54-615).
T2 construct: extracellular domain; Bought protein; also called CDH9-ECD-His protein; not shown: His tag
T2 sequence (looked up): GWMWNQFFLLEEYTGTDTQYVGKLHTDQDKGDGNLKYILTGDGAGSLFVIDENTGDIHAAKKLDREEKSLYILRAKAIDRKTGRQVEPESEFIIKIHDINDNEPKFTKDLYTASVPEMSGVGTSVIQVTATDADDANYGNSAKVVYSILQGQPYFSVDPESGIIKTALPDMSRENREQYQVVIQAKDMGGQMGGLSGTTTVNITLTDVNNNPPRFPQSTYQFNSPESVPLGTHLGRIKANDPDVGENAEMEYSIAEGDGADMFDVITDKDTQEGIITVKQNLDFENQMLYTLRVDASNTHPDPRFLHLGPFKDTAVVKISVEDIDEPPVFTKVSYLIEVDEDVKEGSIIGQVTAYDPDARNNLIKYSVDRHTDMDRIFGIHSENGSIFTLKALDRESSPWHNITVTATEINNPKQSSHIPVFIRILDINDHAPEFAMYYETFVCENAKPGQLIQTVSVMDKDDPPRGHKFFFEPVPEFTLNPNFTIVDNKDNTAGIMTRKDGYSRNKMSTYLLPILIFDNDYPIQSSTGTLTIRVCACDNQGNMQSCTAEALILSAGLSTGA
In words: ELISA, antigen coated at 1 ug/mL, 3-fold dilutions of CL069707-H1L1, HRP anti-human antibody, OD450. As for the experimental part:
CDH9 and […] are the most closely related family members to CDH6. Binding of CL069707-H1L1 on human CDH6, CDH9 and CDH10 ECD domains were analyzed by ELISA Binding Assay. Human […], CDH9-ECD-His and CDH10-ECD-His antigens were obtained from Acro Biosystems, Inc. 100 μL of 1 μg/mL of the antigens diluted in PBS were added to 96 well plates and incubated in 4° C. overnight. The plates were washed 3 times with 300 μL of washing buffer. Then 100 μL/well of 1% BSA blocking reagent were added to the plates, and incubated at 37° C. for 1 h then the blocking reagent were discarded. A 3-fold serial dilution of CL069707-H1L1 was added to the plates and then incubated at 37° C. for 1 h. Then the plates were washed 3 times with 300 μL of washing buffer. 100 μL/well of HRP-conjugated anti-Human antibody diluted in 1% BSA were added to the plates and then incubated at 37° C. for 1 h. The plates were washed 3 times with 300 μL of washing buffer. 100 μL/well of TMB substrate were added to the plates and incubated for about 10 min in room temperature. Then the reaction was stopped with 100 μL/well of stopping solution. OD450 was read with a plate reader and the data were processed.

B1: CL069707-H1L1 (antibody, human IgG1, kappa, V domains shown)
VH: EVQLVESGGGLVQPGGSLRLSCAASGFTFTTYAMNWVRQAPGKGLEWVARIRIKNNNYATYYADSVTDRFTISRDDSKNSLYLQMNSLKTEDTAVYYCVRPDYGNYGLAYWGQGTLVTVSS
VL: DIQLTQSPSSLSASVGDRVTITCSASSSISSHYLHWYQQKPGKSPKLLIYRSFYLASGVPSRFSGSGSGTDFTLTISSLQPEDFATYYCQQDIVPLTFGQGTKLEIKR
notes: Humanized IgG1/kappa, produced in 293 cells; also called humanized CL069707-H1L1
A word on the EC50 (read off the curve): it is the midpoint of the concentration-response curve. A lower EC50 (read off the curve) goes with an effect from little substance. As for B1, the “EC50 (read off the curve)” value in assay [1] is approximately 1 nM. In the assay with human CDH9-ECD-His, the binding result is reported as “no binding (tested: 100 nM)”.

These data come from patent US20250090677A1 (MULTITUDE THERAPEUTICS, published 2025).
